Here are results for two molecules from patent US20250282880A1 (NUMAB THERAPEUTICS, published 2025).

The target of assay [1] is T1, Biotinylated IL-4R (human, UniProt P24394 26-232, limits assumed, biotinylated).
T1 construct: also called human IL-4R; hIL-4R
Put plainly: competitive ELISA: IL-4 coated, biotinylated IL-4R preincubated with scFv. From the text:
Bound biotinylated IL-4R was then detected using streptavidin-HRP.
Potency of humanized scFvs was further determined using a competitive ELISA.
On the technique in general: ELISA stands for enzyme-linked immunosorbent assay.

The target in assay [2] is T2, cynomolgus IL-4R-Fc (cynomolgus monkey (Macaca fascicularis), UniProt A0A2K5V580 33-239).
T2 construct: also called cynomolgus IL-4R (capture setup); not shown: Fc part
The assay is described as follows: SPR, capture setup: cynomolgus IL-4R-Fc captured, scFv as analyte. As to the method: (§1) Affinity of the 16 humanized scFvs (derived from 5 rabbit monoclonal antibodies) to human IL-4R was determined by SPR analysis on a T200 device (Biacore, GE Healthcare). Human IL-4R-Fc was captured via an anti-human IgG-Fc coupled to a carboxylmethylated dextran surface and the scFvs were injected as analyte. After each analyte injection cycle the sensor chip was regenerated and new antigen was captured. The scFvs were measured using a dose response multi-cycle kinetic assay with seven analyte concentrations ranging from 0.12 to 90 nM diluted in running buffer. Obtained sensorgrams were fitted using a 1:1 binding model.
(§2) Cross-reactivity to cynomolgus IL-4R was measured using the same setup as for the analysis of human IL-4R affinities, with the difference that cynomolgus IL-4R-Fc was captured instead of human IL-4R-Fc. To determine affinities for marmoset IL-4R, a direct setup was used since only extracellular domain (ECD) of marmoset IL-4R was available. Marmoset ECD was immobilized directly onto the sensor chip and a titration series of scFvs was injected as analyte. To allow for comparison between KD values obtained for cynomolgus and marmoset IL-4R, affinities to cynomolgus IL-4R ECD were also determined using a direct setup.
In general terms: SPR reads the build-up and loss of mass on a sensor chip optically.

Assay [3] has as its target T3, cynomolgus IL-4R ECD (cynomolgus monkey (Macaca fascicularis), UniProt A0A2K5V556 26-232).
T3 construct: immobilized directly on the sensor chip; also called cynomolgus IL-4R (direct setup)
Put plainly: SPR, direct setup: cynomolgus IL-4R ECD immobilized, scFv as analyte. How it is done:
as §2

The target of assay [4] is T4, Marmoset IL-4R ECD (marmoset (Callithrix jacchus), UniProt Q0PIT7 26-232).
T4 construct: also called marmoset monkey IL-4R
T4 sequence (Q0PIT7 entry or part of it limits assumed): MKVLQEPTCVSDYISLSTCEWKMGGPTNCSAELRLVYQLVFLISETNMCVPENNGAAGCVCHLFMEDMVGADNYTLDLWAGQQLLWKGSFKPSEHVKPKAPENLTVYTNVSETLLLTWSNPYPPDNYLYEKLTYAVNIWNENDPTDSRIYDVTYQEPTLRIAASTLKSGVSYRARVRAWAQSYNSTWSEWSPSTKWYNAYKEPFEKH
Put plainly: SPR, direct setup: marmoset IL-4R ECD immobilized, scFv as analyte. How it is done: as §2

Assay [5] addresses IL-4R on HEK-Blue cells (human, UniProt P24394 26-825). Put plainly: cell-based or functional assay.
For assay [6], the target named is T5, Human IL-4R-Fc (human, UniProt P24394 26-232).
T5 construct: not shown: Fc part (captured via anti-human IgG-Fc)
The assay is described as follows: SPR (Biacore T200), human IL-4R-Fc captured via anti-human IgG-Fc, scFv as analyte, 1:1 model. As to the method:
as §1

T3 sequence (A0A2K5V556 entry or part of it limits assumed): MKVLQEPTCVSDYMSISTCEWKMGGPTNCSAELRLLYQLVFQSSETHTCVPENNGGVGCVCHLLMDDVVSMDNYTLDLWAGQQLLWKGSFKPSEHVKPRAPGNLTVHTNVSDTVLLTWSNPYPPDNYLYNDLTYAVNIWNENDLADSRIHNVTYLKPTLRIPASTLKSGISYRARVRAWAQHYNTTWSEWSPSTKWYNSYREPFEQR

B1: PRO1517 (scFv)
scFv: DIQMTQSPSSLSASVGDRVTITCQASEDIESYLAWYQQKPGKAPKLLIYRASTLAYGVPSRFSGSGSGTDFTLTISSLQPEDFATYYCLGSSYSTGSNIFGTGTKVTVLGGGGGSGGGGSGGGGSGGGGSEVQLVESGGGLVQPGGSLRLSCAASGFSSSSAHYMCWVRQAPGKGLEWIGCIYAGSRGSTYYASWAKGRFTISRDNSKNTVYLQMNSLRAEDTAVYYCARAAFVNRGVSWIWPYYFSLWGQGTLVTVSS
notes: humanized scFv (VL-linker-VH), CDR graft of rabbit clone 44-34-C10; also called 44-34-C10-sc01; 44-34-C10 sc01
As for B1, in assay [1], the IC50 (as a rule, the concentration that inhibits the measured activity by half) was found to be 0.54 ng/mL and the “rel. IC50 (IC50, dupilumab/IC50, test sample)” value is 3.46 ratio. In assay [2], the Kd (in general, the equilibrium constant for the complex coming apart) is 0.0946 nM; the dissociation rate constant (koff) (commonly a measure of how fast the partners let go of each other) amounted to 0.000182 s⁻¹; the kon (usually the rate constant with which the complex forms) amounted to 1.92e+06 M⁻¹ s⁻¹. In assay [3], this molecule came in with a Kd of 0.681 nM, a koff of 0.000404 s⁻¹ and a kon of 594000 M⁻¹ s⁻¹. In assay [4], the Kd turned out to be 0.392 nM, the koff came to 0.00105 s⁻¹ and the association rate constant (kon) was 2.67e+06 M⁻¹ s⁻¹. In assay [5], the “IC50, neutralization of hIL-4-induced signaling in reporter gene assay” value was 1.44 ng/mL; the “IC50, neutralization of hIL-13-induced signaling in reporter gene assay” value worked out at 1.83 ng/mL; the “rel. IC50 (IC50, dupilumab/IC50, test sample), hIL-4-induced signaling” value is 0.39 ratio; the “rel. IC50 (IC50, dupilumab/IC50, test sample), hIL-13-induced signaling” value came to 0.57 ratio. In assay [6], this molecule came in with a dissociation constant Kd of 0.0055 nM, a koff of 1.95e-05 s⁻¹ and a kon of 3.55e+06 M⁻¹ s⁻¹.

B2: PRO1535 (scFv)
scFv: DIQMTQSPSSLSASVGDRVTITCQASEDIESYLAWYQQKPGKPPKLLIYRASTLAYGVPSRFSGSGSGTDFTLTISSLQPEDFATYYCLGSSYSTGSNIFGTGTKVTVLGGGGGSGGGGSGGGGSGGGGSESQLVESGGGLVQPGGSLRLSCAASGFSSSSAHYMCWVRQAPGKGLEWIACIYAGSRGSTYYASWAKGRFTISKDNSKNTVYLQMNSLRAEDTAVYFCARAAFVNRGVSWIWPYYFSLWGQGTLVTVSS
notes: humanized scFv (VL-linker-VH), Full graft of rabbit clone 44-34-C10; also called 44-34-C10-sc04; 44-34-C10 sc04
Regarding B2, in assay [1], the IC50 is 1.92 ng/mL and the “rel. IC50 (IC50, dupilumab/IC50, test sample)” value turned out to be 0.98 ratio. In assay [2], the Kd was determined as 0.165 nM, the koff was 0.000264 s⁻¹ and the kon amounted to 1.6e+06 M⁻¹ s⁻¹. In assay [3], this molecule had a Kd of 0.376 nM, a koff of 0.000238 s⁻¹ and a kon of 634000 M⁻¹ s⁻¹. In assay [4], this molecule gave a Kd of 0.787 nM, a koff of 0.00254 s⁻¹ and an on-rate (kon) of 3.23e+06 M⁻¹ s⁻¹. Moreover, in assay [5], the “IC50, neutralization of hIL-4-induced signaling in reporter gene assay” value is 1.15 ng/mL; the “IC50, neutralization of hIL-13-induced signaling in reporter gene assay” value worked out at 2.3 ng/mL; the “rel. IC50 (IC50, dupilumab/IC50, test sample), hIL-4-induced signaling” value turned out to be 1.02 ratio; the “rel. IC50 (IC50, dupilumab/IC50, test sample), hIL-13-induced signaling” value was found to be 0.99 ratio. In assay [6], this molecule registered a Kd of 0.0199 nM, a koff of 5.42e-05 s⁻¹ and a kon of 2.72e+06 M⁻¹ s⁻¹.
